One series deals with HEK cells. Put plainly: Crossbow fibronectin micropatterns (geometric constraint). The series is classed as cell-based, human. The protocol: Tissue culture plates were coated with Col-T-gel (Fischer Scientific) of stiffness ranging from 0.8 KPa (soft) to 30 KPa (stiff) as per manufacturer recommendations and allowed to solidify for 40 min at 37° C. inside tissue culture incubators. Some experiments were performed with cells seeded on the poly-hydrogel plates of defined stiffness: 0.2 kPa and 16 kPa soft and hard polyhydrogels, respectively (CytoSoft, Advanced Biomatrix, Inc.,). The determination of stiffness of silicone substrates were done by the manufacturer as per previously published protocols. For certain experiments, indicated amounts of sAgrin was incorporated into the 0.8 KPa collagen gels before gelation process. Upon gelation, trypsinized cells or excised mouse skin explants were plated onto the gels of different stiffness either alone or containing sAgrin. The cells/tissues were incubated under standard culture condition with 500 μl recommended culture medium for the indicated days. The crossbow shaped micropatterns with fibronectin coated islands were generated by microlithography on a 19.5×19.5 mm coverslide from Cytoo, Inc., France. The micropatterns had surface areas of 800μ^2 or 1600μ^2, respectively. Fifty thousand cells after initial siRNA treatment was placed on the micropatterns for 4-6 h before processing them for immunofluorescence. […]

A further series concerns MMP12. Description: MMP12 activity assay (gelatin and casein zymography). The series is classed as cell-based, human. The settings on record: Agrin silenced keratinocytes, increasing dose of sAgrin 24 h. The method, then:
MMP12 activity were monitored via Gelatin and Casein zymography as per previously published protocols. Briefly, control or Agrin depleted HaCaT cells were grown till 80-90% confluency in media without FBS. Supernatants collected from each culture dish were spun down at 10,000 rpm for 5 min and concentrated using Amicon ultra columns. Twenty microliter of medium was mixed with 2×SDS loading buffer and loaded on 10% gelatin or casein gel. The gels were washed with incubation buffer and subsequently stained with Coomassie Brilliant Blue for 1 h. The gels were de-stained for 30 min before imaging using a Chemidoc imager.

Series [1] deals with primary mouse keratinocytes. Description: BrDu proliferation assay of mouse keratinocytes. The series is classed as cell-based. The settings on record: increasing concentrations of sAgrin. The protocol: (a) The protein sequence of the C-terminal Agrin fragment used as bio-additive. Gel-filtration profile of purified sAgrin. The recombinant sAgrin were tested in a Coomassie stained gel and by Western blot using an Agrin antibody. (b) BrDu proliferation assay of mouse keratinocytes cells treated with increasing concentrations of sAgrin for the indicated days (n=3 experiments, Students ‘t’ test, **p=0.001 and *p=0.01, respectively). (c) HaCaT/mouse keratinocytes cells treated with increasing doses of sAgrin were subjected to scratch wound assay. Representative bright-field images are shown at indicated times post-wounding. Scale bar: 20 μm. The resulting uncovered wound area presented as mean+/−s.d. was quantified using ImageJ (n=3, Students ‘t’ test, *p<0.01). (d) Untreated or sAgrin (10 μg/ml) HaCaT cells were scratched and allowed to migrate for 4 h. […] The relative diameter of wounds presented as mean+/−s.d. was measured on indicated days and represented graphically from one experiment (n=3 mice per group, One-way ANOVA, *p<0.04, **p<0.004, respectively). […] The degree of proliferating cells were quantified using ImageJ (n=3 sections analyzed from two independent mice wounds, Students ‘t’ tests, *p=0.01). […] The quantification of individual types of collagen fibers were done using ImageJ (n=3 sections analyzed per group, Students ‘t’ test, *p=0.01 and 0.05, respectively).

B1: sAgrin: C-terminus recombinant Agrin fragment containing 8 amino acid 'Z8' insert and LG3 domain (SEQ ID NO: 7), His-tagged, expressed in E. coli (protein)
chain: DTLAFDGRTFVEYLNAVTESELANEIPVEKALQSNHFELSLRTEATQGLVLWSGKATERADYVALAIVDGHLQLSYNLGSQPVVLRSTVPVNTNRWLRVVAHREQREGSLQVGNEAPVTGSSPLGATQLDTDGALWLGGLPELPVGPALPKAYGTGFVGCLRDVVVGRHPLHLLEDAVTKPELRPCPTP
modifications: His tag
Consider B1, for which, in the series with HEK cells (800μ^2 patterns, 20 μg/ml sAgrin), the “F-actin stress fibers and pMLC in small crossbow patterns” value was “partially rescued F-actin stress fibers and higher pMLC recruitment to the transverse arc”. The “stress fiber formation in large crossbow patterns” value in the series on HEK cells (1600μ^2 patterns) was “further accentuated”. Also, the “tension curvatures at transverse arcs” value in the series on HEK cells (large crossbow patterns) is listed as “significantly higher tension curvatures”. Moreover, in the series on HEK cells (large crossbow patterns, sAgrin nourishment), the “F-actin stress fibers and pMLC in MMP12 knockdown cells” value was “did not exhibit F-actin stress fibers and pMLC enrichment in the transverse arcs”. Further, the “tension signature in Agrin depleted cells” value with HEK cells (sAgrin in FN crossbow matrix, large patterns) was “restored the tension signature of F-actin stress fiber network and pMLC enriched transverse arcs”. The “MMP12 gelatin and casein degradation catalytic activity” value in the series with MMP12 was “restored by sAgrin supplementation in a dose-dependent pattern”. Further, the “proliferation (BrDu incorporation)” value in series [1] was “supported the proliferation of primary mouse keratinocytes”.

The record behind these values is US20230257435A1, “Wound Healing Composition and Uses Thereof” (AGENCY FOR SCIENCE, TECHNOLOGY AND RESEARCH, priority 2020, published 2023).
